Target: SARS-CoV-2 Spike Trimer (B.1.617.2/Delta) (SARS-CoV-2) (UniProt P0DTC2)
Assay: single-molecule force spectroscopy

Question: “H84T-banana lectin (H84T-BanLec) (from UniProt Q8L5H4 1-141) (designed binder)” was tested. Which IC50 did it give?
Answer: 3.9 nM

Reference: publication PMC9519379 (Cell Reports Medicine, 2022)
